The target of the assay is T1, wild-strain SARS-CoV-2 spike protein RBD (SARS-CoV-2, UniProt P0DTC2).
T1 construct: also called S1 RBD; wild-type strain S1 RBD
As to the kind of experiment: AFM single-molecule force spectroscopy. To be noted: one partner purified.

For one molecule, koff results are on record in publication PMC10360031 (ACS Applied Materials & Interfaces, 2023).

B1: cell-surface vimentin (CSV) on mouse embryonic fibroblasts mEF +/+ (natural protein)
chain: not shown
notes: also called extracellular Vim; native extracellular Vim; source: endogenous, on live mEF +/+ cells
Consider B1, for which the koff (usually the rate constant with which the complex falls apart) came out at 0.19 ± 0.07 s⁻¹.
